Results as given in article PMC10613254.

Biological target: bovine brain Arp2/3 complex (bovine) (UniProt P61157)
Test: ITC; cortactin constructs titrated into ATP-Arp2/3 complex; temperature and concentrations indicated only in Fig. 4d

Cort_(18-76), sequence (Q60598 18-76): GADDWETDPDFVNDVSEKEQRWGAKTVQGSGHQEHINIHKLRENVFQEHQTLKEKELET
Cort_(1-33), sequence (Q60598 1-33): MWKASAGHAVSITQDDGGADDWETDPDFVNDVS
Cort_(1-76), cortactin N-terminal acidic domain (NTA, residues 1-76), sequence (Q60598 1-76): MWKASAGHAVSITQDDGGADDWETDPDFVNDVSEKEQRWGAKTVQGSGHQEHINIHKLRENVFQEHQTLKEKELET

Row | stoichiometry N | Substance
1 | 1 | Cort_(1-33) (from UniProt Q60598 1-33) (domain or fragment)
2 | 1 | Cort_(1-76), cortactin N-terminal acidic domain (NTA, residues 1-76) (from UniProt Q60598 1-76) (domain or fragment)
3 | 1 | Cort_(18-76) (from UniProt Q60598 18-76) (domain or fragment)
